The values that follow come from PMC5360572 (EBioMedicine, 2017).

Where only a bound is given, the exact number is not on record here.

As a reminder, the Kd is the concentration at which binding is half-saturated. The low end stands for tighter binding, the high end for weaker binding.

First the molecules themselves.
B1: human PD-L2 Ig fusion protein (Fc fusion, UniProt Q9BQ51 20-220, looked up)
chain: LFTVTVPKELYIIEHGSNVTLECNFDTGSHVNLGAITASLQKVENDTSPHRERATLLEEQLPLGKASFHIPQVQVRDEGQYQCIIIYGVAWDYKYLTLKVKASYRKINTHILKVPETDEVELTCQATGYPLAEVSWPNVSVPANTSHSRTPEGLYQVTSVLRLKPPPGRNFSCVFWNTHVRELTLASIDLQSQMEPRTHPT
notes: characterized by SEC prior to use; also called huPD-L2; B7-DC; source: bought: R&D Systems
B2: mouse PD-1, wild type (soluble, monomeric) (domain or fragment, UniProt Q02242 25-169, looked up)
chain: LEVPNGPWRSLTFYPAWLTVSEGANATFTCSLSNWSEDLMLNWNRLSPSNQTEKQAAFCNGLSQPVQDARFQIIQLPNRHDFHMNILDTRRNDSGIYLCGAISLHPKAKIEESPGAELVVTERILETSTRYPSPSPKPEGRFQGM
notes: mouse PD-1, soluble monomeric form used as SPR analyte; the construct used here is not described; also called mPD-1; murine PD-1

The target of test [1] is human mature dendritic cells expressing PD-L1 and PD-L2.
In test [2] the target is T1, full-length human PD-1 I126A, on HEK293 cells (human, UniProt Q15116 25-288, I126A).
T1 construct: Gateway pEF5/FRT/V5-DEST destination vector; source: HEK293, transiently transfected, on the cell surface
Put plainly: flow cytometry on cells; HEK293 cells transiently transfected with full-length wild type or mutant human PD-1, incubated with PD-L1 or PD-L2 Ig fusion proteins (0.01–50 μg/ml) for one hour on ice; APC anti-human IgG F(ab')2 Fcγ specific; MFI normalized to wild type PD-1 binding; relative binding at 0.5 μg/ml ligand. The note with it: one partner purified. In general terms: A flow cytometer gives signals particle by particle.

For test [3], the target named is T2, human PD-L1 Ig fusion protein (human, UniProt Q9NZQ7 19-238).
T2 construct: characterized by SEC prior to use; detected on cells with anti-human IgG Fcγ-specific F(ab')2; also called huPD-L1; B7-H1; source: bought: R&D Systems
Put plainly: SPR; BIAcore 3000, 25 °C; PD-L1-Ig or PD-L2-Ig immobilized on CM5 chip by amine coupling; soluble monomeric PD-1 or mutants (0.01–100 μM) injected at 20 μl/min; equilibrium Kd, 1:1 Langmuir model. Conditions: both partners purified.

Test [4] concerns the target B1. Described as above. Conditions: both partners purified.

T1 sequence (Q15116 25-288 I126A): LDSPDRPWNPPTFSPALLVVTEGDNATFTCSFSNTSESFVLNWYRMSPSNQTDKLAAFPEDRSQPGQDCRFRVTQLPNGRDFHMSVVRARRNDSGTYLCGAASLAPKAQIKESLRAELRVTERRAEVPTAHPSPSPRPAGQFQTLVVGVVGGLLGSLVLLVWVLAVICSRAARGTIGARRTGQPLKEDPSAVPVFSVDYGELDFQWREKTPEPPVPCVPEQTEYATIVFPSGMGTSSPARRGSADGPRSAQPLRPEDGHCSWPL
T2 sequence (Q9NZQ7 19-238): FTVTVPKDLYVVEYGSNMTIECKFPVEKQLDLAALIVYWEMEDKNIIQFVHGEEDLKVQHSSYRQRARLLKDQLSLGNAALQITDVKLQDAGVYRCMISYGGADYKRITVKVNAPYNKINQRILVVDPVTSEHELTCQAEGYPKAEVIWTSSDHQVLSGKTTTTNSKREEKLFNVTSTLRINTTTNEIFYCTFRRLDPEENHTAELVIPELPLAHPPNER

Turning to “high-affinity human PD-1 (A132L) Ig fusion protein (from UniProt Q15116 25-170) (Fc fusion)”, in test [1], the T cell proliferation (3H-thymidine uptake) in allogeneic MLR with dendritic cells pre-treated with HA PD-1 Ig (0.5–5 μg/ml), against untreated control was more than 50%; the production of IFN-γ and IL-12p70 in allogeneic MLR, against untreated control (no Ig) is more than 6 fold.
Take B1: in test [2], the “reduction of binding relative to wild type PD-1” value is 50%.
As to B2, the results for the Kd in test [3] and in test [4] were 4.02 µM and 10.7 µM, respectively.
